How the values were obtained:
[1] = target: T1, human TGFβ2, mature receptor-binding domain (human, UniProt P09858 303-414 (pig entry), The mature TGFβ2 is a disulfide-linked homodimer of this 112-residue chain. The 4A11 epitope spans both monomers (p-1207).); test: SPR
T1 construct: Peprotech; also called TGFb2
T1 sequence: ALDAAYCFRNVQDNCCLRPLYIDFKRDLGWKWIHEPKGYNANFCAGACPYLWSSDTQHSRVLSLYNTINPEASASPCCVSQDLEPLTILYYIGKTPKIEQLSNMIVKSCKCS

[2] = target: T2, human TGFβ3, mature dimeric form (human, UniProt P10600 301-412); test: SPR
T2 construct: Peprotech, expressed in E. coli; also called TGFb3
T2 sequence: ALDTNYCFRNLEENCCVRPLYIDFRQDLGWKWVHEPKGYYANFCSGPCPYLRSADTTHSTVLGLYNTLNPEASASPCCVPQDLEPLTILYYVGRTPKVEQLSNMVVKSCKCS

[3] = target: T3, human TGFβ1, mature receptor-binding domain (human, UniProt P01137 279-390); test: BIAcore T200
T3 construct: Peprotech; also called TGFb1
T3 sequence (P01137 279-390 limits assumed): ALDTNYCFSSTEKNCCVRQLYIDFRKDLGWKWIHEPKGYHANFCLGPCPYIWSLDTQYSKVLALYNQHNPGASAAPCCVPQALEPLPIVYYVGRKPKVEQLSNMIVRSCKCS
Procedure, shortened: (§1)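 Humanized antibodies captured on protein A CM5 chip (~100 RU), then 3-fold serial dilutions of TGFβ (0.02–5 nM) injected in HBS-EP pH 7.4 at 25° C., 50 μl/min. kon and koff from 1:1 Langmuir fit; KD = koff/kon.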

[4] = target: T1, human TGFβ2, mature receptor-binding …; test: BIAcore T200
Procedure, shortened: as §1

[5] = target: T2, human TGFβ3, mature dimeric form; test: BIAcore T200
Procedure, shortened: as §1

[6] = target: T3, human TGFβ1, mature receptor-binding …; test: cell-based or functional assay
[7] = target: T1, human TGFβ2, mature receptor-binding …; test: cell-based or functional assay
[8] = target: T2, human TGFβ3, mature dimeric form; test: cell-based or functional assay

B1: 4A11 (antibody, V domains shown)
VH: QSLEESGGRLVTPGTPLTLTCTVSGFSLSSYTVNWVRQAPGKGLEWIGYISYGGSAYYASWANGRFTISKTSATVDLKITSPTTEDTATYFCARHMQVGGAPTGSMAAFDPWGPGTLVTVSS
VL: AAVLTQTPSPVSAAVGGTVSISCQSSQSVYNNNYLSWFQQKPGQPPKLLIYGASTLTSGVPSRFKGSGSGTQFTLTISDVQCDDAATYYCAGGYSGSSDKYAFGGGTEVVVKG
notes: anti-TGFβ2/3, recombinant rabbit monoclonal; some paragraphs print the H/L pair as 32/33; also called Rb1.4A11; Rbt 4A11
Q: Which Kd [1] does the source give for B1 here?
A: < 0.01 nM

Q: And the Kd [2]?
A: < 0.01 nM

Q: What about the Kd [3] of the same binder?
A: > 5 nM

Q: What about the Kd [4] of the same binder?
A: 0.0016 nM

Q: And the Kd [5]?
A: 0.0012 nM

Q: And the “HEKBlue TGFβ blocking IC50” value [6]?
A: > 200 nM

Q: And the “HEKBlue TGFβ blocking IC50” value [7]?
A: 0.09 nM

Q: What about the “HEKBlue TGFβ blocking IC50” value [8] of the same binder?
A: 0.06 nM

— patent publication US20210301005A1 (Genentech, published 2021)
